This is an account of results in PMC12234955 (Nature Communications, 2025).

Assay [1] deals with T1, Norrin-Fc (human Norrin K25-S133, HRV 3C site, human IgG1 Fc, C-terminal FLAG) (human), Q00604.
T1 chain: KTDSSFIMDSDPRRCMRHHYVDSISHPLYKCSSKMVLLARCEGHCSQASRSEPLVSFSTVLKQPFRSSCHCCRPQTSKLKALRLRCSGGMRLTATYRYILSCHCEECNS
Kind of assay: cryo-EM structure. As to conditions: remark: other sources report otherwise.

Assay [2] addresses Human LGR4 (residues A25-Q833), C-terminal Flag tag (human, UniProt Q9BXB1 25-833). Description: cryo-EM structure.
In assay [3] the target is LGR4-ECD (LGR4 ectodomain) (human, UniProt Q9BXB1). Description: BLI.

B1: Norrin-Fc (human Norrin K25-S133, HRV 3C site, human IgG1 Fc, C-terminal FLAG), Q00604 25-133 (Fc fusion)
chain: T1 chain
In turn, B1 came in with a stoichiometry N in assay [1] of 2.

B2: Norrin-Fc (human Norrin K25-S133, HRV 3C site, human IgG1 Fc, C-terminal FLAG) (Fc fusion)
chain: T1 chain
Regarding B2, the “stoichiometry N” value in assay [2] is 1 Norrin chains per LGR4 (2:2).

B3: NB18 (VHH)
VHH: QVQLQESGGGSVQAGGSLRLSCAASGYTYSRTCMAWFRQAPGKEREGIATINSDGTTTYADSVKGRFTISRDNAKNTLSLQMNSLKPEDTAMYYCAAASLSTRGCSRAEWEYRYWGQGTQVTVSS
For B3, the Kd in assay [3] is 150 pM.
